The record followed here is article PMC7102971 (Nucleic Acids Research, 2020).

This data set deals with the molecule itself. Briefly: crystal structure.

B1: SFPQ-276-535 (dimerization domain of human SFPQ) (domain or fragment)
chain: EGFKANLSLLRRPGEKTYTQRCRLFVGNLPADITEDEFKRLFAKYGEPGEVFINKGKGFGFIKLESRALAEIAKAELDDTPMRGRQLRVRFATHAAALSVRNLSPYVSNELLEEAFSQFGPIERAVVIVDDRGRSTGKGIVEFASKPAARKAFERCSEGVFLLTTTPRPVIVEPLEQLDDEDGLPEKLAQKNPMYQKERETPPRFAQHGTFEYEYSQRWKSLDEMEKQQREQVEKNMKDAKDKLESEMEDAYHEHQANLL
As for B1, the binding result is given as “binds”.
